Laboratory results published in the Immune Epitope Database (IEDB).

Columns and labels:
HLA-A*68:02 [1] = assay: IEDB peptide-MHC binding, purified MHC/competitive/radioactivity; ≥ and ≤ were set here for values at or beyond the usual limits of such assays
HLA-A*02:03 = assay: as above
HLA-A*02:02 = assay: IEDB peptide-MHC binding, cellular MHC/competitive/fluorescence; ≥ and ≤ were set here for values at or beyond the usual limits of such assays
HLA-A*02:06 = assay: as above
HLA-A*02:01 = assay: as above
HLA-A*68:02 [2] = assay: as above
[3] = source organism: Vaccinia virus WR
[4] = source organism: Influenza A virus

EVGTNFGTI
IC50 (HLA-A*68:02 [1]; [3]): 0.069 µM
IC50 (HLA-A*02:03; [3]): 1.94 µM
IC50 (HLA-A*02:02; [3]): 5.76 µM
IC50 (HLA-A*02:06; [3]): 19.9 µM
IC50 (HLA-A*02:01; [3]): 20.1 µM

RVNHAKYMVT
IC50 (HLA-A*68:02 [1]; [3]): 0.544 µM
IC50 (HLA-A*02:03; [3]): 1.05 µM
IC50 (HLA-A*02:02; [3]): 33.6 µM
IC50 (HLA-A*02:06; [3]): 9.34 µM
IC50 (HLA-A*02:01; [3]): 39 µM

ETMYLTMKA
IC50 (HLA-A*68:02 [1]; [3]): 0.00064 µM
IC50 (HLA-A*02:03; [3]): 0.942 µM
IC50 (HLA-A*02:02; [3]): 7.85 µM
IC50 (HLA-A*02:06; [3]): 12.7 µM
IC50 (HLA-A*02:01; [3]): 19.1 µM

STKADAVVA
IC50 (HLA-A*68:02 [1]; [3]): 0.82 µM
IC50 (HLA-A*02:03; [3]): 4.95 µM
IC50 (HLA-A*02:02; [3]): 8.19 µM
IC50 (HLA-A*02:06; [3]): 16.2 µM
IC50 (HLA-A*02:01; [3]): 29.3 µM

NTKSDNIINI
IC50 (HLA-A*68:02 [1]; [3]): 0.101 µM
IC50 (HLA-A*02:03; [3]): 1.08 µM
IC50 (HLA-A*02:02; [3]): 30.8 µM
IC50 (HLA-A*02:06; [3]): ≥ 70 µM
IC50 (HLA-A*02:01; [3]): ≥ 70 µM

ELENKKVEYV
IC50 (HLA-A*02:03; [3]): 3.65 µM
IC50 (HLA-A*02:02; [3]): 21.4 µM
IC50 (HLA-A*68:02 [2]; [3]): ≥ 70 µM
IC50 (HLA-A*02:06; [3]): ≥ 70 µM
IC50 (HLA-A*02:01; [3]): 35.5 µM

KLYIALCKVT
IC50 (HLA-A*02:03; [3]): 0.625 µM
IC50 (HLA-A*02:02; [3]): 7.11 µM
IC50 (HLA-A*68:02 [2]; [3]): 18.6 µM
IC50 (HLA-A*02:06; [3]): 6.36 µM

HANNSTDTV
IC50 (HLA-A*68:02 [1]; [4]): 0.168 µM
IC50 (HLA-A*02:03; [4]): 4.32 µM
IC50 (HLA-A*02:02; [4]): 8.32 µM
IC50 (HLA-A*02:06; [4]): 55 µM
IC50 (HLA-A*02:01; [4]): 24 µM

LAKSVFNSL
IC50 (HLA-A*02:03; [4]): 3.1 µM
IC50 (HLA-A*02:02; [4]): 14 µM
IC50 (HLA-A*68:02 [2]; [4]): ≥ 70 µM
IC50 (HLA-A*02:06; [4]): 17.1 µM
IC50 (HLA-A*02:01; [4]): 30.9 µM

NISFKSINKV
IC50 (HLA-A*68:02 [1]; [3]): 2.03 µM
IC50 (HLA-A*02:03; [3]): 1.53 µM
IC50 (HLA-A*02:02; [3]): 20.3 µM
IC50 (HLA-A*02:06; [3]): 11.7 µM
IC50 (HLA-A*02:01; [3]): 14.5 µM

EVMPEKRNVV
IC50 (HLA-A*68:02 [1]; [3]): 0.107 µM
IC50 (HLA-A*02:03; [3]): 2.62 µM
IC50 (HLA-A*02:02; [3]): 20.2 µM
IC50 (HLA-A*02:06; [3]): 12.1 µM
IC50 (HLA-A*02:01; [3]): 44.3 µM

FISYNRHNDT
IC50 (HLA-A*68:02 [1]; [3]): 2.28 µM
IC50 (HLA-A*02:03; [3]): 4.93 µM
IC50 (HLA-A*02:02; [3]): 6.84 µM
IC50 (HLA-A*02:06; [3]): 11.2 µM
IC50 (HLA-A*02:01; [3]): 36.3 µM

DAKRNSKSLV
IC50 (HLA-A*02:03; [3]): 2.87 µM
IC50 (HLA-A*02:02; [3]): 13.3 µM
IC50 (HLA-A*68:02 [2]; [3]): 12.6 µM
IC50 (HLA-A*02:06; [3]): 52.1 µM
IC50 (HLA-A*02:01; [3]): 30.3 µM

TVEFDRDKVV
IC50 (HLA-A*68:02 [1]; [3]): 2.63 µM
IC50 (HLA-A*02:03; [3]): 1.59 µM
IC50 (HLA-A*02:02; [3]): 16.2 µM
IC50 (HLA-A*02:06; [3]): 30.8 µM
IC50 (HLA-A*02:01; [3]): 30.9 µM

TAGNKVDVDI
IC50 (HLA-A*02:03; [3]): 3.5 µM
IC50 (HLA-A*02:02; [3]): 11 µM
IC50 (HLA-A*68:02 [2]; [3]): 9.83 µM
IC50 (HLA-A*02:06; [3]): 38.1 µM
IC50 (HLA-A*02:01; [3]): 40.2 µM

IAMLKSKNI
IC50 (HLA-A*02:03; [3]): 0.846 µM
IC50 (HLA-A*02:02; [3]): 37.7 µM
IC50 (HLA-A*68:02 [2]; [3]): 5.87 µM
IC50 (HLA-A*02:06; [3]): 10.6 µM
IC50 (HLA-A*02:01; [3]): 46.7 µM

EIKAEMQLKI
IC50 (HLA-A*02:03; [3]): 4.76 µM
IC50 (HLA-A*02:02; [3]): 16.9 µM
IC50 (HLA-A*68:02 [2]; [3]): 5.12 µM
IC50 (HLA-A*02:06; [3]): 14.3 µM
IC50 (HLA-A*02:01; [3]): 27.5 µM

NALLKHRFEII
IC50 (HLA-A*02:03; [4]): 4.1 µM
IC50 (HLA-A*02:02; [4]): 11.2 µM
IC50 (HLA-A*68:02 [2]; [4]): 12.4 µM
IC50 (HLA-A*02:06; [4]): 5.36 µM
IC50 (HLA-A*02:01; [4]): 22.7 µM

NTSQRGIL
IC50 (HLA-A*02:03; [4]): 2.79 µM
IC50 (HLA-A*02:02; [4]): 5.1 µM
IC50 (HLA-A*68:02 [2]; [4]): ≥ 70 µM
IC50 (HLA-A*02:06; [4]): ≥ 70 µM
IC50 (HLA-A*02:01; [4]): 6.68 µM

AAAKTPVIVV
IC50 (HLA-A*02:03; [3]): 1.52 µM
IC50 (HLA-A*02:02; [3]): 8.04 µM
IC50 (HLA-A*68:02 [2]; [3]): 5.25 µM
IC50 (HLA-A*02:06; [3]): 13.4 µM
IC50 (HLA-A*02:01; [3]): 44.3 µM

SMYTRLRQDT
IC50 (HLA-A*02:03; [3]): 1.14 µM
IC50 (HLA-A*02:02; [3]): 6.56 µM
IC50 (HLA-A*68:02 [2]; [3]): ≥ 70 µM
IC50 (HLA-A*02:06; [3]): 42 µM
IC50 (HLA-A*02:01; [3]): 32.9 µM

SMTSDSKSI
IC50 (HLA-A*02:03; [3]): 2.3 µM
IC50 (HLA-A*02:02; [3]): 8.35 µM
IC50 (HLA-A*68:02 [2]; [3]): 8.09 µM
IC50 (HLA-A*02:06; [3]): 56.1 µM
IC50 (HLA-A*02:01; [3]): 34.8 µM

ELTSNCTRTT
IC50 (HLA-A*02:03; [3]): 1.47 µM
IC50 (HLA-A*02:02; [3]): 14.6 µM
IC50 (HLA-A*68:02 [2]; [3]): 5.04 µM
IC50 (HLA-A*02:06; [3]): 5.72 µM
IC50 (HLA-A*02:01; [3]): 15.2 µM

TLNRNQPAA
IC50 (HLA-A*02:03; [4]): 0.583 µM
IC50 (HLA-A*02:02; [4]): 11.4 µM
IC50 (HLA-A*68:02 [2]; [4]): ≥ 70 µM
IC50 (HLA-A*02:06; [4]): ≥ 70 µM
IC50 (HLA-A*02:01; [4]): 15.2 µM

EILRNYLRL
IC50 (HLA-A*02:03; [3]): 2.09 µM
IC50 (HLA-A*02:02; [3]): 14 µM
IC50 (HLA-A*68:02 [2]; [3]): 9.23 µM
IC50 (HLA-A*02:06; [3]): 12.9 µM
IC50 (HLA-A*02:01; [3]): 10.5 µM

SLETVKMGA
IC50 (HLA-A*02:03; [3]): 0.547 µM
IC50 (HLA-A*02:02; [3]): 11.2 µM
IC50 (HLA-A*68:02 [2]; [3]): ≥ 70 µM
IC50 (HLA-A*02:06; [3]): 23.4 µM
IC50 (HLA-A*02:01; [3]): 26.1 µM

LMLHNPTSET
IC50 (HLA-A*02:03; [3]): 4.48 µM
IC50 (HLA-A*02:02; [3]): 39.3 µM
IC50 (HLA-A*68:02 [2]; [3]): ≥ 70 µM
IC50 (HLA-A*02:06; [3]): 11.1 µM
IC50 (HLA-A*02:01; [3]): 8.92 µM

HQRRLVKLL
IC50 (HLA-A*02:03; [3]): 1.68 µM
IC50 (HLA-A*02:02; [3]): 15.9 µM
IC50 (HLA-A*68:02 [2]; [3]): ≥ 70 µM
IC50 (HLA-A*02:06; [3]): 21.3 µM
IC50 (HLA-A*02:01; [3]): 26.6 µM

DAMIHKTYI
IC50 (HLA-A*68:02 [1]; [3]): 0.087 µM
IC50 (HLA-A*02:03; [3]): 1.52 µM
IC50 (HLA-A*02:02; [3]): 5.42 µM
IC50 (HLA-A*02:06; [3]): 9.56 µM
IC50 (HLA-A*02:01; [3]): 8.17 µM

DIRDKYMEL
IC50 (HLA-A*02:03; [3]): 3.86 µM
IC50 (HLA-A*02:02; [3]): 24.3 µM
IC50 (HLA-A*68:02 [2]; [3]): 14.7 µM
IC50 (HLA-A*02:06; [3]): 14.6 µM
IC50 (HLA-A*02:01; [3]): 10.3 µM

LMSDNPKAST
IC50 (HLA-A*02:03; [3]): 0.938 µM
IC50 (HLA-A*02:02; [3]): 8.88 µM
IC50 (HLA-A*68:02 [2]; [3]): ≥ 70 µM
IC50 (HLA-A*02:06; [3]): 47.4 µM
IC50 (HLA-A*02:01; [3]): 8.98 µM

EAFETQSGAL
IC50 (HLA-A*68:02 [1]; [3]): 0.068 µM
IC50 (HLA-A*02:03; [3]): 0.995 µM
IC50 (HLA-A*02:02; [3]): 8.56 µM
IC50 (HLA-A*02:06; [3]): 15 µM
IC50 (HLA-A*02:01; [3]): 14.2 µM

DITNILGGV
IC50 (HLA-A*68:02 [1]; [3]): 0.012 µM
IC50 (HLA-A*02:03; [3]): 1.64 µM
IC50 (HLA-A*02:02; [3]): 9.88 µM
IC50 (HLA-A*02:06; [3]): 7.43 µM
IC50 (HLA-A*02:01; [3]): 11.4 µM

IIYSKAGNI
IC50 (HLA-A*02:03; [3]): 0.013 µM
IC50 (HLA-A*02:02; [3]): 9.76 µM
IC50 (HLA-A*68:02 [2]; [3]): 5.39 µM
IC50 (HLA-A*02:06; [3]): 13.7 µM
IC50 (HLA-A*02:01; [3]): 50.7 µM
